Experimental data taken from PMC4359370.

Assays:
GFP-TPP1-OB-LacI (human) = test: LacI-LacO tethering assay (co-localisation of GFP and mCherry foci); GFP-TPP1-OB-LacI tethered to a single LacO array on chromosome 1 of U2OS 2-6-3 cells, co-transfected with mCherry-hTERT and hTR; fixed cells, intrinsic fluorescence; fraction of nuclei with co-localised foci (n = 3, 117-176 nuclei total)
[1] = biological target: POT1-TPP1 E169K complex (wild-type POT1 with TPP1N E169K) (human) (UniProt Q9NUX5)
[2] = biological target: POT1-TPP1 E215K complex (wild-type POT1 with TPP1N E215K) (human) (UniProt Q9NUX5)
[3] = biological target: wild-type POT1-TPP1 complex (POT1-TPP1N) (human) (UniProt Q9NUX5)
[4] = biological target: POT1-TPP1 E169K complex (wild-type POT1 with TPP1N E169K) (human) (UniProt Q9NUX5); remark: listed apart in the source
[5] = biological target: wild-type POT1-TPP1 complex (POT1-TPP1N) (human) (UniProt Q9NUX5); remark: listed apart in the source
[6] = biological target: POT1-TPP1 E215K complex (wild-type POT1 with TPP1N E215K) (human) (UniProt Q9NUX5); remark: listed apart in the source

GFP-TPP1-OB-LacI (human), sequence (Q96AP0 whole entry): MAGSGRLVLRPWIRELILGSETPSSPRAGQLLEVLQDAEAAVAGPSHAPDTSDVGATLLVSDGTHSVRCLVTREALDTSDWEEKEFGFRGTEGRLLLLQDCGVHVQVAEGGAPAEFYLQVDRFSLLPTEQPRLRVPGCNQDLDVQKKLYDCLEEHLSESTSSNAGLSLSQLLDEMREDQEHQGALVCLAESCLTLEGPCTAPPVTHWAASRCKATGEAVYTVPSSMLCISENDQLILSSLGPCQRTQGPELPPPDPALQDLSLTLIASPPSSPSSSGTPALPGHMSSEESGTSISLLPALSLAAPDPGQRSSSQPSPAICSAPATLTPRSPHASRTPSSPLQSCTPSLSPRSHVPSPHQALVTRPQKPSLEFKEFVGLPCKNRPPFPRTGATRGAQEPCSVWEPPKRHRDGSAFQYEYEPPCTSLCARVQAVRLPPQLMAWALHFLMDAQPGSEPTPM

mCherry-hTERT wild type (with hTR) (from UniProt O14746 1-1132) (enzyme)
fraction of nuclei with co-localisation (GFP-TPP1-OB-LacI (human)): 90%

hTERT K78E;R132E telomerase (ZZ-TEV-3xFlag-hTERT with hTR) (from UniProt O14746 1-1132) (enzyme)
RAP stimulation by POT1-TPP1 relative to wild-type telomerase and wild-type TPP1 (direct telomerase activity assay) [1]: < 23%
RAP stimulation by POT1-TPP1 relative to wild-type telomerase and wild-type TPP1 (direct telomerase activity assay) [2]: < 23%
RAP stimulation by PT % of WT (direct telomerase activity assay) [3]: 18 % of WT

hTERT R87E;R91E;K94E telomerase (ZZ-TEV-3xFlag-hTERT with hTR) (from UniProt O14746 1-1132) (enzyme)
RAP stimulation by PT % of WT (direct telomerase activity assay) [3]: 61 % of WT

mCherry-hTERT R132E (with hTR) (from UniProt O14746 1-1132) (enzyme)
fraction of TPP1-OB-fold domain foci showing telomerase signal (GFP-TPP1-OB-LacI (human)): 30%

hTERT R72E telomerase (ZZ-TEV-3xFlag-hTERT R72E with hTR) (from UniProt O14746 1-1132) (enzyme)
RAP stimulation by PT % of WT (direct telomerase activity assay) [3]: 91 % of WT

hTERT V144M telomerase (ZZ-TEV-3xFlag-hTERT V144M with hTR) (from UniProt O14746 1-1132) (enzyme)
RAP stimulation by POT1-TPP1 relative to wild-type telomerase with wild-type POT1-TPP1 (direct telomerase activity assay) [4]: 28%
POT1-TPP1 RAP stimulation compared to wild-type telomerase (direct telomerase activity assay) [5]: 61%
RAP stimulation by POT1-TPP1 relative to wild-type telomerase with wild-type POT1-TPP1 (direct telomerase activity assay) [6]: 37%
RAP stimulation by PT % of WT (direct telomerase activity assay) [3]: 44 % of WT

hTERT R132E telomerase (ZZ-TEV-3xFlag-hTERT R132E with hTR) (from UniProt O14746 1-1132) (enzyme)
RAP stimulation by POT1-TPP1 relative to wild-type telomerase and wild-type TPP1 (direct telomerase activity assay) [1]: < 23%
RAP stimulation by POT1-TPP1 relative to wild-type telomerase and wild-type TPP1 (direct telomerase activity assay) [2]: < 23%
RAP stimulation by PT % of WT (direct telomerase activity assay) [3]: 24 % of WT

hTERT R120E telomerase (ZZ-TEV-3xFlag-hTERT R120E with hTR) (from UniProt O14746 1-1132) (enzyme)
RAP stimulation by PT % of WT (direct telomerase activity assay) [3]: 55 % of WT

mCherry-hTERT K78E (with hTR) (from UniProt O14746 1-1132) (enzyme)
fraction of TPP1-OB-fold domain foci showing telomerase signal (GFP-TPP1-OB-LacI (human)): 55%

hTERT K78E;R120E telomerase (ZZ-TEV-3xFlag-hTERT with hTR) (from UniProt O14746 1-1132) (enzyme)
RAP stimulation by PT % of WT (direct telomerase activity assay) [3]: 38 % of WT

hTERT K78A telomerase (ZZ-TEV-3xFlag-hTERT K78A with hTR) (from UniProt O14746 1-1132) (enzyme)
RAP stimulation by PT % of WT (direct telomerase activity assay) [3]: 88 % of WT

hTERT K78E telomerase (ZZ-TEV-3xFlag-hTERT K78E with hTR) (from UniProt O14746 1-1132) (enzyme)
RAP stimulation by POT1-TPP1 relative to wild-type telomerase and wild-type TPP1 (direct telomerase activity assay) [1]: < 24%
RAP stimulation by POT1-TPP1 relative to wild-type telomerase and wild-type TPP1 (direct telomerase activity assay) [2]: 98%
RAP stimulation by PT % of WT (direct telomerase activity assay) [3]: 68 % of WT

hTERT R142E telomerase (ZZ-TEV-3xFlag-hTERT R142E with hTR) (from UniProt O14746 1-1132) (enzyme)
RAP stimulation by PT % of WT (direct telomerase activity assay) [3]: 103 % of WT

wild-type telomerase (ZZ-TEV-3xFlag-hTERT with hTR) (from UniProt O14746 1-1132) (enzyme)
RAP stimulation by POT1-TPP1 relative to wild-type telomerase and wild-type TPP1 (direct telomerase activity assay) [1]: < 24%
RAP stimulation by POT1-TPP1 relative to wild-type telomerase and wild-type TPP1 (direct telomerase activity assay) [2]: 78%
